Experimental data as given in PMC8026907.

How the values were obtained:
Settings in all cases: protein: recombinant; tags: His-tag (pET-3a); chain copies: 2; blunt
[1] = molecular target: T1, CRP-MTB (cAMP receptor protein, wild type) (Mycobacterium tuberculosis, UniProt P9WMH3 1-224); test: fluorescence anisotropy; 1 mM cAMP
T1 sequence: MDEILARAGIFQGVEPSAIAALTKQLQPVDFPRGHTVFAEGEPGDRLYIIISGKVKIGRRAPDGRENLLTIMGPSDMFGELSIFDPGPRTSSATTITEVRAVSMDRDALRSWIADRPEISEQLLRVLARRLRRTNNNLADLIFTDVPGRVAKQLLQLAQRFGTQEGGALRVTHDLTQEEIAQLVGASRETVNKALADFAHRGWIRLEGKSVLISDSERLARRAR

[2] = molecular target: T1, CRP-MTB (cAMP receptor protein, wild …); test: fluorescence anisotropy; no cAMP (apo)
[3] = molecular target: T1, CRP-MTB (cAMP receptor protein, wild …); test: fluorescence anisotropy; 0.1 mM cAMP

Binder | Ka [1] | Ka [2] | Ka [3]
SerC promoter 20-bp, fluorescein (dsDNA) DNA 1: AGTGTGAACAAGCTCACATG DNA 2: CATGTGAGCTTGTTCACACT | 0.5 ± 0.1 1e8 M-1 | 0.12 ± 0.02 1e8 M-1 | 
SerC promoter 32-bp, fluorescein (dsDNA) DNA 1: GCGCGTAGTGTGAACAAGCTCACATGCAAGCC DNA 2: GGCTTGCATGTGAGCTTGTTCACACTACGCGC | 4.2 ± 1.7 1e8 M-1 | 2.3 ± 0.9 1e8 M-1 | 4.5 ± 1.2 1e8 M-1
